Results from US20250250330A1 (REVOPSIS THERAPEUTICS, published 2025).
“And” between values parts separate entries of the source, which are not always exact repeats. Identical values can stand only once.

Assays:
[1] = target: T1, Recombinant human ANG-2 (R&D Systems, Cat #623-AN-025/CF) (human, UniProt O15123 19-496, limits assumed); test: ELISA on rhANG-2 by an independent team; first of three runs by an independent team (average 0.0491 nM)
T1 construct: also called rhANG-2
T1 sequence (looked up): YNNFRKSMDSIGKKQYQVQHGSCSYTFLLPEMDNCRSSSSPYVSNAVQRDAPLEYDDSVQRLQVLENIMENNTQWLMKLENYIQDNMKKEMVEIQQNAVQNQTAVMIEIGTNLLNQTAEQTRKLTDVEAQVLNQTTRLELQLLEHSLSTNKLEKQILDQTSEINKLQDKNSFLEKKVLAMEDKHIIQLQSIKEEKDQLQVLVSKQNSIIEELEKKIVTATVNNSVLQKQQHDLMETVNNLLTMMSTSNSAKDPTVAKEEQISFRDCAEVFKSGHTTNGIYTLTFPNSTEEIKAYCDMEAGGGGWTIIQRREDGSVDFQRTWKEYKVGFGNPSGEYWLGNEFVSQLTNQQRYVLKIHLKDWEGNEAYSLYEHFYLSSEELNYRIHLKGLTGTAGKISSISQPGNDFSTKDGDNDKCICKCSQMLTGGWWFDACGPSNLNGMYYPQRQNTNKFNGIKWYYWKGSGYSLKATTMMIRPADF

[2] = target: T2, Recombinant human VEGF165 (Peprotech, Cat #100-20) (human, UniProt P15692-4 27-191); test: ELISA; target coated at 1 ug/mL, anti-human IgG Fc-HRP detection
T2 construct: Bought protein; also called rhVEGF165; rh VEGF165
Procedure: (§1) Third, the binding to rhPIGF-1 or rhPIGF-3 was tested in comparison with rhVEGF₁₆₅. Target proteins were used to coat Corning 9017 medium binding plates at 1 μg/mL and 100 μl per well. […] Donkey anti-human IgG Fcγ-HRP was used for detection. OD450 nm readings were measured by Victor 3.

[3] = target: T2, Recombinant human VEGF165 (Peprotech, …); test: as above; remark: listed apart in the source
Procedure: Different target proteins were used to coat Corning 9017 medium binding plates at 1 μg/mL and 100 μl per well. Donkey anti-human IgG Fcγ-HRP was used for detection. OD450 nm readings were measured by Victor 3.

[4] = target: T3, rrANG-2 (rabbit; Speed Biosystems_YCP8015) (Rabbit, UniProt G1T9B3 19-496); test: ELISA on coated rabbit ANG-2
T3 construct: Bought protein; also called Rabbit ANG-2
T3 sequence: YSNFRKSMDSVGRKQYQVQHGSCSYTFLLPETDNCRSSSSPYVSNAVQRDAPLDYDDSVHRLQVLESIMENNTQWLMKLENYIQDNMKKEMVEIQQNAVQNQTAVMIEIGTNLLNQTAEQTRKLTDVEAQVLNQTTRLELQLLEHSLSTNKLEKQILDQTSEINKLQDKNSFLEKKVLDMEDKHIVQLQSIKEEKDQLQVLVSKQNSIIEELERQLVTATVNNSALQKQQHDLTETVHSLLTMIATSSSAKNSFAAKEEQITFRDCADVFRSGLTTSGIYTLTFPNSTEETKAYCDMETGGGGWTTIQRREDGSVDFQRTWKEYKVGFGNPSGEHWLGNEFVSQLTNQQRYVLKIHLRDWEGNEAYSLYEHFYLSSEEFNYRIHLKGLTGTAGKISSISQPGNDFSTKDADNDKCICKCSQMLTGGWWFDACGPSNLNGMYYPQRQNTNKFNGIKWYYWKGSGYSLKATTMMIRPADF

[5] = target: T2, Recombinant human VEGF165 (Peprotech, …); test: competition ELISA; rhVEGF165 coated, competitor biotinylated rhVEGF R2/KDR
Procedure: (§2) The mixture was added to ELISA binding plates which contained rhVEGF₁₆₅ coating. […] The receptor binding was detected by HRP-conjugated streptavidin (Jackson ImmunoResearch Laboratories, Cat #016-030-084) and visualized by TMB substrate.

[6] = target: T2, Recombinant human VEGF165 (Peprotech, …); test: ELISA on coated human VEGF-A (rhVEGF165)
[7] = target: T2, Recombinant human VEGF165 (Peprotech, …); test: competition ELISA; IC50 ratio against Faricimab for inhibition of VEGF165-VEGF R2/KDR binding
Procedure: as §2

[8] = target: T1, Recombinant human ANG-2 (R&D Systems, …); test: ELISA on rhANG-2 by an independent team; average of three values
[9] = target: T4, His-tagged recombinant human ANG-2 (AcroBiosystems, Cat #AN2-H52H4) (human, UniProt O15123 275-496); test: ELISA; rhANG-2 (AcroBiosystems) coated, anti-human IgG Fc-HRP detection
T4 construct: also called rhANG-2; rhANG-2-His; not shown: His tag
T4 sequence (looked up): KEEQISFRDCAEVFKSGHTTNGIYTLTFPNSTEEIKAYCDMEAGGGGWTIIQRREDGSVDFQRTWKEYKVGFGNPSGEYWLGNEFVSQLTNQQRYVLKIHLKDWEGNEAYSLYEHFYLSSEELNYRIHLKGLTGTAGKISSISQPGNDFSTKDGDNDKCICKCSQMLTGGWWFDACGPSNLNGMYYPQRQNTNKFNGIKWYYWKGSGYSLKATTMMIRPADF
Procedure: Donkey anti-human IgG Fcγ-HRP (Jackson ImmunoResearch Laboratories, Cat #709-035-098) was used for detection and visualized by TMB substrate. OD450 nm readings were measured by Victor 3 with PerkinElmer 1420 Multilabel Counter.

[10] = target: T5, rhPlGF-1 (Peprotech_100-06) (human, UniProt P49763-2 19-149); test: ELISA: rhPlGF-1_Peprotech coated at 1 ug/mL, RO-101_Sample 1 from 100 nM in 1:3 dilutions, detected with anti-human IgG Fc-gamma-HRP
T5 construct: Bought protein; also called rhPIGF-1; PIGF-1
T5 sequence (looked up): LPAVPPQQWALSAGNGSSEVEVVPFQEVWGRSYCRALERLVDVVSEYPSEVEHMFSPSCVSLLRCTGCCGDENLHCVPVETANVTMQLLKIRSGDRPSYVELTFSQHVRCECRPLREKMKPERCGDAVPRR
Procedure: as §1

B1: RO-101 VEGF/ANG-2 bispecific surrobody (bispecific antibody, human IgG1, L234A L235A)
heavy 1: not shown
heavy 2: EVQLVESGGGLVKPGGSLRLSCAASGFTFSSYGMHWVRQAPGKGLEWVAGISADSGDKNYADSVKGRFTISRDNAKNSLYLQMNSLRAEDTAVYYCAKEFISWIYTFDYLDYWGQGTLVTVSSASTKGPSVFPLAPSSKSTSGGTAALGCLVKDYFPEPVTVSWNSGALTSGVHTFPAVLQSSGLYSLSSVVTVPSSSLGTQTYICNVNHKPSNTKVDKKVEPKSCDKTHTCPPCPAPEAAGGPSVFLFPPKPKDTLMISRTPEVTCVVVDVSHEDPEVKFNWYVDGVEVHNAKTKPREEQYNSTYRVVSVLTVLHQDWLNGKEYKCKVSNKALPAPIEKTISKAKGQPREPQVCTLPPSRDELTKNQVSLSCAVKGFYPSDIAVEWESNGQPENNYKTTPPVLDSDGSFFLVSKLTVDKSRWQQGNVFSCSVMHEALHNHYTQKSLSLSPG
light: QPVLHQPPAMSSALGTTIRLTCTLRNDHDIGVYSVYWYQQRPGHPPRFLLRYFSQSDKSQGPQVPPRFSGSKDVARNRGYLSISELQPEDEAMYYCAMGARSSVTHVFGSGTQLTVLSQPKATPSVTLFPPSSEELQANKATLVCLMNDFYPGILTVTWKADGTPITQGVEMTTPSKQSNNKYAASSYLSLTPEQWRSRRSYSCQVMHEGSTVEKTVAPAECS
notes: Format SgG1; also called Sample 1
Question: Which EC50 [1] does the source give for B1 here?
Answer: The EC50 was 52.6 pM.

Question: What about the EC50 [2] of the same binder?
Answer: Its EC50 is 16.2 pM.

Question: And the EC50 [3]?
Answer: The EC50 was 12.2 pM.

Question: And the EC50 [4]?
Answer: Its EC50 is 11 pM.

Question: And the IC50 [5]?
Answer: The IC50 was 1990 pM.

Question: What about the EC50 [6] of the same binder?
Answer: Its EC50 is 17.1 pM.

Question: What about the Fold [7] of the same binder?
Answer: Its Fold is 3.25 fold.

Question: What about the “average EC50” value [8] of the same binder?
Answer: The value was 49.1 pM.

Question: What about the EC50 [9] of the same binder?
Answer: Its EC50 is 11.8 pM and 13.8 pM.

Question: Does B1 bind [10]?
Answer: Result: no binding (tested: 100 nM (Log(nM) 2))
